Assay results taken from patent publication US20230348616A1 (MIE UNIVERSITY, published 2023).

Assays:
[1] = biological target: T1, HLA-A*0201/β2-microglobulin/NY-ESO peptide complex (human, biotinylated with E. coli biotin ligase at the added recognition sequence (biotinylated form used in the ELISA)); test: screening of NYA-0001 mutant phage libraries
T1 construct: also called HLA/NY-ESO; HLA-A2/NY-ESO

2M [2] = biological target: T2, 2M; test: flow cytometry, CD3e knockout T2 cells pulsed with 50 µM peptide, antibody at 100 nM, PE anti-human IgG; gMFI standardized to the HLA/peptide amount; DMSO-only cells 1.15
T2 construct: also called HLA-A2 / point-mutant NY-ESO peptide 2M complex on CD3e knockout T2 cells
Method: (§1) The cells were washed 2 times in PBS containing 5% FBS, PE conjugated F(ab′)2 Fragment Anti-Human IgG (Jackson Immuno Research Laboratories) diluted with PBS containing 5% FBS was added at 25 μl/well, and the resultant was allowed to stand at 4° C. for 30 minutes. The cells were washed 2 times in PBS containing 5% FBS, immobilized with Mildform 10 N (FUJIFILM Wako Pure Chemical Corporation) overnight, and resuspended in PBS containing 5% FBS. […] The cells were washed 2 times in PBS containing 5% FBS, immobilized with Mildform 10 N (FUJIFILM Wako Pure Chemical Corporation) overnight, and resuspended in PBS containing 5% FBS. The cell suspensions were subjected to detection using a flow cytometer (CantoII, Becton Dickinson). […] The standardized gMFI indicating the binding affinity of each Fc-conjugated anti-HLA-A2/NY-ESO-anti-CD3 bispecific molecule standardized with the amount of the HLA/peptide complex on the CD3e knockout T2 cells was determined in accordance with the following equation.

3A [3] = biological target: T3, 3A; test: as above
T3 construct: also called HLA-A2 / point-mutant NY-ESO peptide 3A complex on CD3e knockout T2 cells
Method: as §1

4A [4] = biological target: T4, 4A; test: as above
T4 construct: also called HLA-A2 / point-mutant NY-ESO peptide 4A complex on CD3e knockout T2 cells
Method: as §1

5A [5] = biological target: T5, 5A; test: as above
T5 construct: also called HLA-A2 / point-mutant NY-ESO peptide 5A complex on CD3e knockout T2 cells
Method: as §1

6L [6] = biological target: T6, 6L; test: as above
T6 construct: also called HLA-A2 / point-mutant NY-ESO peptide 6L complex on CD3e knockout T2 cells
Method: as §1

9A [7] = biological target: T7, 9A; test: as above
T7 construct: peptide added to CD3e knockout T2 cells at 50 µM; also called HLA-A2 / point-mutant NY-ESO peptide 9A complex on CD3e knockout T2 cells
Method: as §1

1F = biological target: T8, 1F; test: flow cytometry on peptide-pulsed T2 cells, scFv 100 nM
T8 construct: also called HLA-A2 / point-mutant NY-ESO peptide 1F complex on T2 cells

2M [8] = biological target: T9, 2M; test: as above
T9 construct: also called HLA-A2 / point-mutant NY-ESO peptide 2M complex on T2 cells

3A [9] = biological target: T10, 3A; test: as above
T10 construct: also called HLA-A2 / point-mutant NY-ESO peptide 3A complex on T2 cells

4A [10] = biological target: T11, 4A; test: as above
T11 construct: also called HLA-A2 / point-mutant NY-ESO peptide 4A complex on T2 cells

5A [11] = biological target: T12, 5A; test: as above
T12 construct: also called HLA-A2 / point-mutant NY-ESO peptide 5A complex on T2 cells

6L [12] = biological target: T13, 6L; test: as above
T13 construct: also called HLA-A2 / point-mutant NY-ESO peptide 6L complex on T2 cells

7F = biological target: T14, 7F; test: as above
T14 construct: also called HLA-A2 / point-mutant NY-ESO peptide 7F complex on T2 cells

8A = biological target: T15, 8A; test: as above
T15 construct: also called HLA-A2 / point-mutant NY-ESO peptide 8A complex on T2 cells

9A [13] = biological target: T16, 9A; test: as above
T16 construct: also called HLA-A2 / point-mutant NY-ESO peptide 9A complex on T2 cells

B1: NYA-0060 (scFv, V domains shown)
VH: EVQLVESGGGVVQPGRSLTPSCSASGFSIRSYDIHWVRLAPGKGLEWVATISYDGSQKYFADSVKGRFTIFRDESENMVYLQMSGLRVEDTAVYHCARGSSGHYEAFDIWGQGTMVTVSS
VL: QSVLTQPPSVSAAPGQKVTISCSGSSSNIGNNYVSWYQQLPGTAPKLLIYDNNKRPSGIPDRFSGSKSGTSATLGITGLQTGDEADYYCGTWDSSLSAPWVFGGGTKVTVL
notes: NYA-0001 mutant from a phage library
binding result [1]: binds

B2: NYA-0068 (scFv, V domains shown)
VH: EVQLVESGGGVVQPGRSLTPSCSASGFSIRSYDIHWVRQAPGKGLEWVATISYDGSQKYFADSVKGRFTIFRDESENMVYLQMSGLRVEDTAVYHCARGSSGHYEAFDIWGQGTMVTVSS
VL: QSVLTQPPSVSAAPGQKVTISCSGSSSNIGNWYVSWYQQLPGTAPKLLIYDNNKRPSGIPDRFSGSKSGTSATLGITGLQTGDEADYYCGTWDSSLSAPWVFGGGTKVTVL
notes: as for B1
binding result [1]: binds

B3: NYA-0082 (scFv, V domains shown)
VH: EVQLVESGGGVVQPGRSLTPSCSASGFSIRSYDIHWVRQAPGKGLEWVATISYDGSQKYFADSVKGRFTIFRDESENMVYLQMSGLRVEDTAVYHCARGSSGHYEAFDIWGQGTMVTVSS
VL: QSVLTQPPSVSAAPGQKVTISCSGSSSNIGNNYVSWYQRLPGTAPKLLIYDNNKRPSGIPDRFSGSKSGTSATLGITGLQTGDEADYYCGSWDSSLSAPWVFGGGTKVTVL
notes: as for B1
binding result [1]: binds

B4: NYZ-1010 (bispecific antibody, human IgG1, lambda, L234A L235A)
chain 1: not shown
chain 2: not shown
light: NFMLTQPSSVSGVPGQRVTISCTGNTGNIGSNYVNWYQQLPGTAPKLLIYRDDKRPSGVPDRFSGSKSGTSASLAITGFQAEDEADYYCQSYSSGFIFGGGTKLTVLGQPKAAPSVTLFPPSSEELQANKATLVCLISDFYPGAVTVAWKADSSPVKAGVETTTPSKQSNNKYAASSYLSLTPEQWKSHRSYSCQVTHEGSTVEKTVAPTECS
standardized gMFI (2M [2]): 39.5
standardized gMFI (3A [3]): 21.3
standardized gMFI (4A [4]): 1.05
standardized gMFI (5A [5]): 1.02
standardized gMFI (6L [6]): 37.6
standardized gMFI (9A [7]): 51.9

B5: NYA-2027 (scFv)
scFv: GEVQLVESGGGVVQPGRSLTPSCSASGFSIRSYDIHWVRQAPGKGLEWVATISYDGSQKYFADSVKGRFTIFRDESENMVYLQMSGLRVEDTAVYHCARGSSGHYEAFDIWGQGTMVTVSSGGGGSGGGGSGGGGSQSVLTQPPSVSAAPGQKVTISCSGSSSNIGNNYVSWYQQLPGTAPKLLIYDNNKRPSGIPDRFSGSKSGTSATLGITGLQTGDEADYYCGSWDSSLSAPWVFGGGTKVTVLGAAAGAGGDYKDDDDKGAAAHHHHHH
standardized gMFI (1F): 0.57
standardized gMFI (2M [8]): 7.84
standardized gMFI (3A [9]): 9.91
standardized gMFI (4A [10]): 0.99
standardized gMFI (5A [11]): 0.75
standardized gMFI (6L [12]): 7.85
standardized gMFI (7F): 5.41
standardized gMFI (8A): 9.47
standardized gMFI (9A [13]): 6.9

B6: NYA-2060 (scFv)
scFv: GEVQLVESGGGLVQPGGSLRLSCAASGFSIRSYDIHWVRQAPGKGLEWVATISYDGSQKYYADSVKGRFTISRDESKNTLYLQMNSLRAEDTAVYHCARGSSGHYEAFDIWGQGTLVTVSSGGGGSGGGGSGGGGSQSVLTQPPSVSAAPGQKVTISCSGSSSNIGNWYVSWYQQLPGTAPKLLIYDNNKRPSGIPDRFSGSKSGTSATLGITGLQTGDEADYYCGTWDSSLSAPWVFGGGTKVTVLGAAAGAGGDYKDDDDKGAAAHHHHHH
notes: also called NYA-2060 tag adduct
standardized gMFI (1F): 0.52
standardized gMFI (2M [8]): 6.93
standardized gMFI (3A [9]): 5.51
standardized gMFI (4A [10]): 0.73
standardized gMFI (5A [11]): 0.7
standardized gMFI (6L [12]): 7.94
standardized gMFI (7F): 2.51
standardized gMFI (8A): 6.18
standardized gMFI (9A [13]): 9.48

B7: NYA-2061 (scFv)
scFv: GEVQLVESGGGLVQPGGSLRLSCAASGFSIRSYDIHWVRQAPGKGLEWVATISYDGSQKYYADSVKGRFTISRDESKNTLYLQMNSLRAEDTAVYHCARGSSGHYEAFDIWGQGTLVTVSSGGGGSGGGGSGGGGSQSVLTQPPSASGTPGQRVTISCSGSSSNIGNWYVSWYQQLPGTAPKLLIYDNNKRPSGVPDRFSGSKSGTSASLAISGLQSEDEADYYCGTWDSSLSAPWVFGGGTKLTVLGAAAGAGGDYKDDDDKGAAAHHHHHH
notes: also called NYA-2061 tag adduct
standardized gMFI (1F): 0.54
standardized gMFI (2M [8]): 7.17
standardized gMFI (3A [9]): 4.73
standardized gMFI (4A [10]): 0.59
standardized gMFI (5A [11]): 0.66
standardized gMFI (6L [12]): 7.13
standardized gMFI (7F): 2.04
standardized gMFI (8A): 5.22
standardized gMFI (9A [13]): 9.16

B8: NYC-0003 (scFv, not shown: small tags and cut ends)
scFv: EVQLLESGGGLVQPGGSLRLSCAASGFTFSTYQMSWVRQAPGKGLEWVSGIVSSGGSTAYADSVKGRFTISRDNSKNTLYLQMNSLRAEDTAVYYCAGELLPYYGMDVWGQGTTVTVSSGGGGSGGGGSGGGGSQSELTQPRSVSGSPGQSVTISCTGTSRDVGGYNYVSWYQQHPGKAPKLIIHDVIERSSGVPDRFSGSKSGNTASLTISGLQAEDEADYYCWSFAGSYYVFGTGTDVTVL
notes: also called 3M4E5 scFv; NYC-0003 tag adduct
standardized gMFI (1F): 3.28
standardized gMFI (2M [8]): 3.73
standardized gMFI (3A [9]): 4.34
standardized gMFI (4A [10]): 0.76
standardized gMFI (5A [11]): 0.69
standardized gMFI (6L [12]): 4.14
standardized gMFI (7F): 3.99
standardized gMFI (8A): 3.42
standardized gMFI (9A [13]): 4.77
